Laboratory results: patent US20190002564A1 (Hoffmann-La Roche, published 2019)

T1: human CEA (Carcinoembryonic antigen, CEACAM5) on tumor cells (human, UniProt P06731 35-685, The C-terminal Ala685 carries the GPI anchor. The protein is heavily N-glycosylated.)
T1 sequence: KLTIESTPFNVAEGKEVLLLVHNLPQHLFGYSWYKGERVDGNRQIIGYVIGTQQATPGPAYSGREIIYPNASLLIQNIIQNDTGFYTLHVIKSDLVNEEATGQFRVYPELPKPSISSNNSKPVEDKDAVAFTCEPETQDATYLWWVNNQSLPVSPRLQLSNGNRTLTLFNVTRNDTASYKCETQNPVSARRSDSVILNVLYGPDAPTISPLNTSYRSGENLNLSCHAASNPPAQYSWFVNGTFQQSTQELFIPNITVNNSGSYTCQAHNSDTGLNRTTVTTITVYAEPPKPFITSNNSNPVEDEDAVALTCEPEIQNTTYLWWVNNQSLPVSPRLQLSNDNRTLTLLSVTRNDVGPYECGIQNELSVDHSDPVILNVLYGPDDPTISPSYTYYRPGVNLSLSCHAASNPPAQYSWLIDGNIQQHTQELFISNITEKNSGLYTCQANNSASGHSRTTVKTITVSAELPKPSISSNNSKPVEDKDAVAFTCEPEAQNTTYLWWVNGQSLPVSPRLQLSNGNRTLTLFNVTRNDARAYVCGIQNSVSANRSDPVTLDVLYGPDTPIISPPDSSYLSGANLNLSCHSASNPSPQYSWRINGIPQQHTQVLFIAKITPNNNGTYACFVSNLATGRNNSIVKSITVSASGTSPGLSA

B1: CEA TCB (2+1 Crossfab-IgG P329G LALA inverted) (bispecific antibody)
chain 1: DIQMTQSPSSLSASVGDRVTITCKASAAVGTYVAWYQQKPGKAPKLLIYSASYRKRGVPSRFSGSGSGTDFTLTISSLQPEDFATYYCHQYYTYPLFTFGQGTKLEIKRTVAAPSVFIFPPSDEQLKSGTASVVCLLNNFYPREAKVQWKVDNALQSGNSQESVTEQDSKDSTYSLSSTLTLSKADYEKHKVYACEVTHQGLSSPVTKSFNRGEC
chain 2: QAVVTQEPSLTVSPGGTVTLTCGSSTGAVTTSNYANWVQEKPGQAFRGLIGGTNKRAPGTPARFSGSLLGGKAALTLSGAQPEDEAEYYCALWYSNLWVFGGGTKLTVLSSASTKGPSVFPLAPSSKSTSGGTAALGCLVKDYFPEPVTVSWNSGALTSGVHTFPAVLQSSGLYSLSSVVTVPSSSLGTQTYICNVNHKPSNTKVDKKVEPKSC
chain 3: not shown
chain 4: QVQLVQSGAEVKKPGASVKVSCKASGYTFTEFGMNWVRQAPGQGLEWMGWINTKTGEATYVEEFKGRVTFTTDTSTSTAYMELRSLRSDDTAVYYCARWDFAYYVEAMDYWGQGTTVTVSSASTKGPSVFPLAPSSKSTSGGTAALGCLVKDYFPEPVTVSWNSGALTSGVHTFPAVLQSSGLYSLSSVVTVPSSSLGTQTYICNVNHKPSNTKVDKKVEPKSCDKTHTCPPCPAPEAAGGPSVFLFPPKPKDTLMISRTPEVTCVVVDVSHEDPEVKFNWYVDGVEVHNAKTKPREEQYNSTYRVVSVLTVLHQDWLNGKEYKCKVSNKALGAPIEKTISKAKGQPREPQVCTLPPSRDELTKNQVSLSCAVKGFYPSDIAVEWESNGQPENNYKTTPPVLDSDGSFFLVSKLTVDKSRWQQGNVFSCSVMHEALHNHYTQKSLSLSPGK
notes: Two anti-CEA Fabs CH1A1A 98/99 2F1, one anti-CD3 crossfab (humanized CH2527), Fc knob-into-hole with P329G LALA; the conventional light chain occurs twice (vector ratio 1:2:1:1); also called CEA TCB antibody
B2: MCSP TCB (2+1 Crossfab-IgG P329G LALA inverted) (bispecific antibody)
chain 1: not shown
chain 2: B1 chain 2
chain 3: not shown
chain 4: QVQLQESGPGLVKPSQTLSLTCTVSGGSITSGYYWNWIRQHPGKGLEWIGYITFDGSNNYNPSLKSRVTISRDTSKNQFSLKLSSVTAADTAVYYCADFDYWGQGTLVTVSSASTKGPSVFPLAPSSKSTSGGTAALGCLVKDYFPEPVTVSWNSGALTSGVHTFPAVLQSSGLYSLSSVVTVPSSSLGTQTYICNVNHKPSNTKVDKKVEPKSCDKTHTCPPCPAPEAAGGPSVFLFPPKPKDTLMISRTPEVTCVVVDVSHEDPEVKFNWYVDGVEVHNAKTKPREEQYNSTYRVVSVLTVLHQDWLNGKEYKCKVSNKALGAPIEKTISKAKGQPREPQVCTLPPSRDELTKNQVSLSCAVKGFYPSDIAVEWESNGQPENNYKTTPPVLDSDGSFFLVSKLTVDKSRWQQGNVFSCSVMHEALHNHYTQKSLSLSPGK
notes: Two anti-MCSP Fabs M4-3(C1) ML2(G3), one anti-CD3 crossfab (humanized CH2527), Fc knob-into-hole with P329G LALA; the conventional light chain occurs twice (vector ratio 1:2:1:1); also called MCSP TCB antibody; MCSP CD3 bispecific antibody
B3: untargeted TCB (bispecific antibody)
polypeptide chain; the text does not say which chain this SEQ ID NO is 1: not shown
polypeptide chain; the text does not say which chain this SEQ ID NO is 2: B1 chain 2
polypeptide chain; the text does not say which chain this SEQ ID NO is 3: not shown
polypeptide chain; the text does not say which chain this SEQ ID NO is 4: not shown
notes: Control bispecific antibody that engages CD3 through humanized CH2527 but no second antigen; also called DP47GS TCB; DP47 GS TCB

How the values were obtained:
[1] = molecular target: T2, human CD3 on Jurkat cells (Homo sapiens, UniProt P07766); assay: flow cytometry on Jurkat cells (human CD3), FITC-conjugated anti-human IgG F(ab')2 secondary antibody, median fluorescence intensity
T2 construct: native, on the surface of the Jurkat human T cell line; also called CD3+ cells (Jurkat)
T2 sequence (P07766 23-207): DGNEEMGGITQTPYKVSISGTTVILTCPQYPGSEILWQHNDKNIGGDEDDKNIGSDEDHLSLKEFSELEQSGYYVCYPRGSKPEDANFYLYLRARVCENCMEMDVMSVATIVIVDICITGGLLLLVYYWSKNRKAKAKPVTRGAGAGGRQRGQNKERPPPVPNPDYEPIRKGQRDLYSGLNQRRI
Procedure: (§1) An untargeted TCB (SEQ ID NOs: 59, 60, 61 and 62; see example 24) was used as control. Briefly, cells were harvested, counted, checked for viability and resuspended at 2×10⁶ cells/ml in FACS buffer (100 μl PBS 0.1% BSA).

[2] = molecular target: T1, human CEA (Carcinoembryonic antigen, …); assay: cell-based or functional assay
[3] = molecular target: T1, human CEA (Carcinoembryonic antigen, …); assay: cell-based or functional assay; remark: listed apart in the source
[4] = molecular target: T2, human CD3 on Jurkat cells; assay: flow cytometry on Jurkat cells (CD3+), PE-conjugated anti-human IgG Fcγ secondary antibody, median fluorescence intensity
Procedure: (§2) Briefly, cells were harvested, counted, checked for viability and resuspended at 2×10⁶ cells/ml in FACS buffer (100 μl PBS 0.1% BSA).

[5] = molecular target: T3, human MCSP (Melanoma-associated Chondroitin Sulfate Proteoglycan) on tumor cells (human, UniProt Q6UVK1 30-2322); assay: flow cytometry on A375 cells (MCSP+), PE-conjugated anti-human IgG Fcγ secondary antibody, median fluorescence intensity
T3 construct: whole, on cells; Cell surface antigen on human tumor cell lines A375 (high), MV-3 (medium), HCT-116 (low); also called CSPG4
T3 sequence (Q6UVK1 30-2322): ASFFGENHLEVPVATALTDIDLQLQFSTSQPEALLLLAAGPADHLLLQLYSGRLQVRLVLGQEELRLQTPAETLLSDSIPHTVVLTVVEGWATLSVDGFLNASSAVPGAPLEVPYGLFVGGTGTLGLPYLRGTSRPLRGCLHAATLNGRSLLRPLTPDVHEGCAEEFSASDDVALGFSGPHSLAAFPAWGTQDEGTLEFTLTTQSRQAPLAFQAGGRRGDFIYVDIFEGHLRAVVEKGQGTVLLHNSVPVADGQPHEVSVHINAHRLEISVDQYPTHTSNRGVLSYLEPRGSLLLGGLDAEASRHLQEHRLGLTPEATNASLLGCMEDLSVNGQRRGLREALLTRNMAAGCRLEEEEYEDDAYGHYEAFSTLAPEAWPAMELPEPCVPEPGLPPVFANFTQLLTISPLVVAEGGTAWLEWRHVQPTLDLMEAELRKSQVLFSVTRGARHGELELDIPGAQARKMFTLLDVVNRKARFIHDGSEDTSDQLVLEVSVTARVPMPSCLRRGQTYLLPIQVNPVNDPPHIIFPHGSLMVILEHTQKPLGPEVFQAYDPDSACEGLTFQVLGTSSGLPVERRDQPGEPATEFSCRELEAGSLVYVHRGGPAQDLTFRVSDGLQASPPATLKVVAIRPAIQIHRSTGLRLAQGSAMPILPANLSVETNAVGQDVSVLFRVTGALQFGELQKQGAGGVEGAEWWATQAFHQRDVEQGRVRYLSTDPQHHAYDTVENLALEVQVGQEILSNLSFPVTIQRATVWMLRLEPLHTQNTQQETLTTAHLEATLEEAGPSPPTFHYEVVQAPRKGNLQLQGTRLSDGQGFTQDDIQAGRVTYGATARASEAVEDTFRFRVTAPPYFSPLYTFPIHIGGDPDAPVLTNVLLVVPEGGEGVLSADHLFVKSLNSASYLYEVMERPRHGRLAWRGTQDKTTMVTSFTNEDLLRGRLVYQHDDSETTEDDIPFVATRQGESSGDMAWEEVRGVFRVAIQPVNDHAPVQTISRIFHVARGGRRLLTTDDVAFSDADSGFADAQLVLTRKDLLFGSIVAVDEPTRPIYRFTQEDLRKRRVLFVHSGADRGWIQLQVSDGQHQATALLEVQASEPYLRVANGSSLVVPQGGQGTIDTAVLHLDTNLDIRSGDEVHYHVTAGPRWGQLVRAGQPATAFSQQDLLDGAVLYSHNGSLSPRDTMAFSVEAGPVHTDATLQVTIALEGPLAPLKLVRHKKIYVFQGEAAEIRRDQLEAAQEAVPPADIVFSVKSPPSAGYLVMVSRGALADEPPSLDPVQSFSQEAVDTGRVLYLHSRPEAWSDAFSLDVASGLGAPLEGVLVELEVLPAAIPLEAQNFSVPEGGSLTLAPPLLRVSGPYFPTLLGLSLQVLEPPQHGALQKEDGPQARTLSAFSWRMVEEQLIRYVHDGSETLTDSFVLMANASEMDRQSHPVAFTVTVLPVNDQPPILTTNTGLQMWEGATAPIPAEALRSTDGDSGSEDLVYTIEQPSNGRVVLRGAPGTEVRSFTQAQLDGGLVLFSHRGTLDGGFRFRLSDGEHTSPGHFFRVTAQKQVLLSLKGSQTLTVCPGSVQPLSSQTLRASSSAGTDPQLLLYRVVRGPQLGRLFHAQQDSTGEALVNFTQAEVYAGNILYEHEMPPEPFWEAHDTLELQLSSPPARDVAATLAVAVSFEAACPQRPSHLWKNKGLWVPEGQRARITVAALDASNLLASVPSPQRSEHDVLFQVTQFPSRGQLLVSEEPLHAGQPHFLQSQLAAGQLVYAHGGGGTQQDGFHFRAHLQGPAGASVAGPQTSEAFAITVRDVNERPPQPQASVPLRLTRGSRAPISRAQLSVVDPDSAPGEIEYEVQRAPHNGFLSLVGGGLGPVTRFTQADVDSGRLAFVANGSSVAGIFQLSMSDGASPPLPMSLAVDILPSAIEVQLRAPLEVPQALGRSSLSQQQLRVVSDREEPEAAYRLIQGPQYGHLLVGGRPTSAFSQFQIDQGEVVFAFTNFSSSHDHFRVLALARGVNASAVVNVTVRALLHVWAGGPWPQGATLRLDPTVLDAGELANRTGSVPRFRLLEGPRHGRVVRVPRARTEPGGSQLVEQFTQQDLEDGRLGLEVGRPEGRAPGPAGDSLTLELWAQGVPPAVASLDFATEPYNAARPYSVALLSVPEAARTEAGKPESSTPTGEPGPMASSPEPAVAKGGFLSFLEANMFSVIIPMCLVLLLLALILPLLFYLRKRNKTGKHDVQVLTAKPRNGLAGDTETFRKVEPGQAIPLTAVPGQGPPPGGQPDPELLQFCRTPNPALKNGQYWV
Procedure: as §2

[6] = molecular target: T1, human CEA (Carcinoembryonic antigen, …); assay: flow cytometry on A549-huCEA cells, FITC-conjugated anti-human IgG F(ab')2 secondary antibody, median fluorescence intensity
Procedure: as §1

Binder | binding result [1] | EC50 of killing of A549-hCEA cells at 40 h, cynomolgus PBMCs as effector cells [2] [nM] | EC50 of killing of A549-hCEA cells at 40 h, human PBMCs as effector cells [2] [nM] | EC50 [pM] 48 h for T-cell mediated killing of ASPC1 cells (LDH release, human PBMCs, E:T 10:1) [3] [pM] | EC50 [pM] 48 h for T-cell mediated killing of BxPC-3 cells (LDH release, human PBMCs, E:T 10:1) [3] [pM] | EC50 [pM] 48 h for T-cell mediated killing of HPAFII cells (LDH release, human PBMCs, E:T 10:1) [3] [pM] | binding result [4] | binding result [5] | binding result [6]
B1 | binds | 0.102 | 0.306 | 846 | 3780 | 667 |  |  | 
B2 |  |  |  |  |  |  | binds |  | 
B3 |  |  |  |  |  |  | binds | no binding (tested: about log 5.3 [pM] (about 200 nM)) | no binding (tested: log 6 [pM] (1000 nM))
